Measured values reported in patent US9645151B2, “Targeting phosphofructokinase and its glycosylation form for cancer” (California Institute of Technology, priority 2012, dated 2017).
Residue numbers refer to the chain shown, from its start. Names and notes keep the numbering of the source. Values belong to the molecule of their own block, whether it stands above or below them.

Legend:
PFK1 [1] = molecular target: T1, PFK1 (Homo sapiens, UniProt P17858); assay: PFK1 oligomerization by native gel electrophoresis; settings: 50 nM F-2,6-BP, 50° C. for 30 min (FIG. 21)
T1 construct: made in house
T1 sequence (P17858 1-780): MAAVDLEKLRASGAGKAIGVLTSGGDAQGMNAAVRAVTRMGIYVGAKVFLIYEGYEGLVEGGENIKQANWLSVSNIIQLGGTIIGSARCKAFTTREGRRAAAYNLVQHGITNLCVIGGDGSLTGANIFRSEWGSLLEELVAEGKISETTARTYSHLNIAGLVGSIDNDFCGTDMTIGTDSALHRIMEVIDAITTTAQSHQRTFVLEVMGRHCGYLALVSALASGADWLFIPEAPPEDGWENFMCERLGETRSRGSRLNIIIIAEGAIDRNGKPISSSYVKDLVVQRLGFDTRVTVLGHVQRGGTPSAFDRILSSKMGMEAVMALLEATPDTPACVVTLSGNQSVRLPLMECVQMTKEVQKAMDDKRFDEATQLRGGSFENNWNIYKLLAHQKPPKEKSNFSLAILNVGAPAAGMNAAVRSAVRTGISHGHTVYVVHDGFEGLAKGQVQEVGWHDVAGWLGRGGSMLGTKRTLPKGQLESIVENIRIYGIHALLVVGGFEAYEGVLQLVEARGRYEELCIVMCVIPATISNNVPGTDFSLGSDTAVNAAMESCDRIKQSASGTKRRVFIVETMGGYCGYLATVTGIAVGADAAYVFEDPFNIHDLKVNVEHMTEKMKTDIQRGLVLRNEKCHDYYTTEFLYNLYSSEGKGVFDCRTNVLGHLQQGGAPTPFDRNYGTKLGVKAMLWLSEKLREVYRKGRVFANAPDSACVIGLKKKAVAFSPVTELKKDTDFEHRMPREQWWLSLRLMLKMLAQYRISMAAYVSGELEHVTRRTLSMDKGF
Method: Flag-tagged PFK1 (L isoform) was transiently expressed in 293T cells with or without co-expression of HA-tagged OGT. After 36 h, Flag-tagged PFK1 was isolated from the lysate using Flag M2 immunoaffinity resin and eluted with a 3 Å˜Flag peptide as described above. The eluent was concentrated using Amicon Ultra Centrifugal Filters (10-kD molecular weight cutoff). Similarly, 293T cells expressing Flag-tagged PFK1 were treated with PUGNAc (100 μM, 12 h) or cultured under hypoxic conditions (0.5% O2, 5% CO2, and 94.5% N2) at 37° C. for 24 h, before protein isolation. As a control, heat treatment of PFK1 in the presence or absence of 50 nM F-2,6-BP was performed at 50° C. for 30 min. The proteins were then subjected to native gel electrophoresis (Bio-Rad) and visualized by Coomassie blue staining as described above.

[2] = test system: H1299, A549, or 293T cells; assay: Cell viability by trypan blue exclusion after PUGNAc treatment; type: cell-based, human; settings: PUGNAc 100 μM for 9 h
PFK1 [3] = molecular target: T2, PFK1 (Homo sapiens, UniProt P17858); assay: PFK1 enzymatic assay; type: biochemical
T2 construct: made in house
T2 sequence (P17858 2-780): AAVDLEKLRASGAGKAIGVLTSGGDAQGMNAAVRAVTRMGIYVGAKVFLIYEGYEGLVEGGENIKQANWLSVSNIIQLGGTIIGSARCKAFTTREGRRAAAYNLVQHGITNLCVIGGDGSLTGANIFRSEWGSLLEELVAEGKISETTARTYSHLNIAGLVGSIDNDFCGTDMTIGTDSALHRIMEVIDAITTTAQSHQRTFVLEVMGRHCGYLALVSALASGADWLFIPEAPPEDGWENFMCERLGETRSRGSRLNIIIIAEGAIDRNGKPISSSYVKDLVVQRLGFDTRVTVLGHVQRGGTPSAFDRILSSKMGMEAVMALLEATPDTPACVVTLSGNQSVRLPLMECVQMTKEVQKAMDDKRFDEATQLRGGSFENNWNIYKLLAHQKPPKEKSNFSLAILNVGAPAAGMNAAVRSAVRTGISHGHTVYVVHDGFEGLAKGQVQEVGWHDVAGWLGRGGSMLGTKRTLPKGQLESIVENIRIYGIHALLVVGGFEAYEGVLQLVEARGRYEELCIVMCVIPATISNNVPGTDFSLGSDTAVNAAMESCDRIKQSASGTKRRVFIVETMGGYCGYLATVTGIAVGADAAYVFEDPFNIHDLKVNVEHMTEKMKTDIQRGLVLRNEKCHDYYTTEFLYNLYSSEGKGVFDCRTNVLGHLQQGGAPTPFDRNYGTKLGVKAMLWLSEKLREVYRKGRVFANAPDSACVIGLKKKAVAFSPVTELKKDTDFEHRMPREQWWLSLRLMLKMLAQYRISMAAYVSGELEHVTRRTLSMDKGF
Method: In order to measure PFK1 activity, a reaction was performed using either cell lysate (20 μg) or recombinant purified PFK1 (0.1 μg) in 1 ml of reaction buffer containing 50 mM Tris-HCl pH 7.5, 100 mM KCl, 5 mM MgCl2, 1 mM ATP, 0.2 mM NADH, 5 mM Na2HPO4, 0.1 mM AMP, 1 mM NH4Cl, 5 mM fructose-6-phosphate, 5 U of triose phosphate isomerase (Sigma-Aldrich), 1 U of aldolase (Sigma-Aldrich) and 1 U of α-glycerophosphate dehydrogenase (Sigma-Aldrich). Absorbance was recorded at 340 nm at room temperature every 15 s for 10 min using a Uvikon UV-Vis spectrophotometer (Research Instruments International). One unit of PFK1 activity is defined as the amount of enzyme that catalyzes the conversion of 1 μmol of fructose-6-phosphate to fructose-1,6-bisphosphate per min.
In order to determine the activation of PFK1 by F-2,6-BP (Sigma-Aldrich) over the indicated concentrations, reactions were performed in similar buffer conditions as described above except that an inhibitory concentration of ATP (3 mM) was used. […]
293T cells were transiently transfected with Flag-tagged PFKL, Myc-tagged PFKP, or Myc-tagged PFKM. […] Glycosylation levels were analyzed by chemoenzymatic labeling with a 5-kD mass tag, and PFK1 activities were measured on the purified proteins as described above.

PFK1 [4] = assay: Analysis of PFK1 glycosylation (chemoenzymatic labeling, immunoblot); type: cell-based, human; settings: 293T cells (FIG. 14)
Method: To carry out chemoenzymatic labeling and biotinylation of proteins in cell lysates, cell lines and tissues were first lysed in lysis buffer (1% SDS, 50 mM Tris-HCl, pH 7.5, 100 mM NaCl, 10 μM PUGNAc, and Complete™ protease inhibitors (Roche)). The cell lysate (400 μg) was then labeled according to the Click-iT O-GlcNAc Enzymatic Labeling System protocol (Invitrogen) and conjugated with an alkyne-biotin compound as per the Click-iT Protein Analysis Detection Kit protocol (Invitrogen). Control experiments were carried out in parallel in the absence of the labeling enzyme GalT. […] To quantify the percentage of glycosylation, the intensity of the band eluted from resin (the glycosylated protein fraction) and the band from the input (the total protein) were measured. […] The percentage of glycosylation on Flag-tagged PFK1 was determined by using an antibody to Flag. To quantify the percentage of glycosylation, the intensity of the PEG-shifted band (the glycosylated protein fraction) and the unshifted band (the non-glycosylated protein fraction) were measured and the ratio of the intensity of the glycosylated protein fraction over the intensity of the total protein (glycosylated protein fraction plus non-glycosylated protein fraction) was taken as the glycosylation stoichiometry.

Molecule: O=P(O)(O)OC[C@H]1O[C@@](CO)(OP(=O)(O)O)[C@@H](O)[C@@H]1O [F-2,6-BP, fructose-2,6-bisphosphate]
rescue of reduction of PFK1 oligomerization state by heat denaturation (PFK1 [1]): partial rescue

Molecule: CC(=O)N[C@H]1/C(=N/OC(=O)Nc2ccccc2)O[C@H](CO)[C@@H](O)[C@@H]1O [PUGNAc, O-(2-acetamido-2-deoxy-D-glucopyranosylidene) amino Nphenylcarbamate]
effect on cell viability [2]: did not affect cell viability

PFK1 activity under hypoxia (PFK1 [3]; expressed in 293T cells, hypoxic vs normoxic (FIG. 2A)): not significantly changed
B1: S529A PFK1: modified PFK-1 polypeptide with serine to alanine substitution at position 529 (SEQ ID NO: 2) (protein)
chain: T1 sequence (P17858 1-780) with S529A
PFK1 activity versus F-2,6-BP concentration (PFK1 [3]; 3 mM ATP (FIG. 19)): impaired at lower F-2,6-BP concentrations
glycosylation of PFK1 mutant (PFK1 [4]): abolished
